Positions count from the first letter of the chain named. Where “and” joins values, the source holds several entries; their conditions need not be identical. Equal entries are not always repeated.
Tests used:
[1] = target: PEG Variants of SEQ ID NO 22 (PEGylated Cysteine variants of fibrin domain fusion form of SK)
[2] = target: T1, PEGylated SK C-Cys (SEQ ID NO 490), Cys at C + 1 position in SK
T1 chain: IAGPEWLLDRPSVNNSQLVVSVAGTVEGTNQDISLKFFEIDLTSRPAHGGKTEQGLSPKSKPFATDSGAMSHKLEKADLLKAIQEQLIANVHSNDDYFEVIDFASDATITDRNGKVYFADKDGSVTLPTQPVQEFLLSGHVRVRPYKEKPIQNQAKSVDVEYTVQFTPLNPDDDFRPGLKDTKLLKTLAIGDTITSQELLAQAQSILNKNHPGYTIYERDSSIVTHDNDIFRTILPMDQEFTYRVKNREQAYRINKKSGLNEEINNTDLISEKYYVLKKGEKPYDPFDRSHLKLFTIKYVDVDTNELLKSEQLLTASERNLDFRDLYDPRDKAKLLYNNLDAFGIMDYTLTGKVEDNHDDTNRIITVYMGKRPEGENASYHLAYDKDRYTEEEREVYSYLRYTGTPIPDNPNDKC

[3] = target: T2, PEGylated SK D102C (SEQ ID NO 32)
T2 chain: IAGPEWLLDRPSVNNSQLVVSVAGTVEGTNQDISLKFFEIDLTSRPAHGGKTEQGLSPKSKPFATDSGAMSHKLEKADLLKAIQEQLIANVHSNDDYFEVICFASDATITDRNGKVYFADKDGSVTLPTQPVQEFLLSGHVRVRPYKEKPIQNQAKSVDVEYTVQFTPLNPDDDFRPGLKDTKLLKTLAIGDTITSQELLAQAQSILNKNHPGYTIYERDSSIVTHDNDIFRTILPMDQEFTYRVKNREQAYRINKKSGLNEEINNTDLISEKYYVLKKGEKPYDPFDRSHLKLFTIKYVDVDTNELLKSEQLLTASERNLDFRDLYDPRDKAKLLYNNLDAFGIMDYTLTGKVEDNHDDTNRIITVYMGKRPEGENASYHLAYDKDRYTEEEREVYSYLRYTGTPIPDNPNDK

[4] = target: T3, PEGylated SK D95C (SEQ ID NO 30)
T3 chain: T2 chain with D95C, C102D

[5] = target: T4, PEGylated SK Ser 258 Cys (SEQ ID NO 49)
T4 chain: T2 chain with C102D, S258C

[6] = target: T5, bi-pegylated NC 1-383 (SEQ ID NO 493), Cys at N - 1 and at C + 1 position in SK (1-383, G3)
T5 chain: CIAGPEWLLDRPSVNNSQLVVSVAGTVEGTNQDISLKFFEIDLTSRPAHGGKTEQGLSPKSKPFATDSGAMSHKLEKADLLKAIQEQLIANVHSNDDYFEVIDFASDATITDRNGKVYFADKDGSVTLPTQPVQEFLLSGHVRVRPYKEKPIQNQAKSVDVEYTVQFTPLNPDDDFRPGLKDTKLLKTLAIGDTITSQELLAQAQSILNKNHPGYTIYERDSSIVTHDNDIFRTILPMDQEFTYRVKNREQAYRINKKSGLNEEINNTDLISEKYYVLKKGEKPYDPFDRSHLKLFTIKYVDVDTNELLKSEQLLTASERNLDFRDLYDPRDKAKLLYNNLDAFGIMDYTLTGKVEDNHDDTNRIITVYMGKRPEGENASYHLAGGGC

[7] = target: T6, native streptokinase nSK (1-414) ATCC 12449 (SEQ ID NO 1)
T6 chain: T2 chain with C102D

B1: human plasminogen (HPG) (protein)
chain: KVYLSECKTGNGKNYRGTMSKTKNGITCQKWSSTSPHRPRFSPATHPSEGLEENYCRNPDNDPQGPWCYTTDPEKRYDYCDILECEEECMHCSGENYDGKISKTMSGLECQAWDSQSPHAHGYIPSKFPNKNLKKNYCRNPDRELRPWCFTTDPNKRWELCDIPRCTTPPPSSGPTYQCLKGTGENYRGNVAVTVSGHTCQHWSAQTPHTHNRTPENFPCKNLDENYCRNPDGKRAPWCHTTNSQVRWEYCKIPSCDSSPVSTEQLAPTAPPELTPVVQDCYHGDGQSYRGTSSTTTTGKKCQSWSSMTPHRHQKTPENYPNAGLTMNYCRNPDADKGPWCFTTDPSVRWEYCNLKKCSGTEASVVAPPPVVLLPDVETPSEEDCMFGNGKGYRGKRATTVTGTPCQDWAAQEPHRHSIFTPETNPRAGLEKNYCRNPDGDVGGPWCYTTNPRKLYDYCDVPQCAAPSFDCGKPQVEPKKCPGRVVGGCVAHPHSWPWQVSLRTRFGMHFCGGTLISPEWVLTAAHCLEKSPRPSSYKVILGAHQEVNLEPHVQEIEVSRLFLEPTRKDIALLKLSSPAVITDKVIPACLPSPNYVVADRTECFITGWGETQGTFGAGLLKEAQLPVIENKVCNRYEFLNGRVQSTELCAGHLAGGTDSCQGDSGGPLVCFEKDKYILQGVTSWGLGCARPNKPGVYVRVSRFVTWIEGVMRNN
[1]
  Km: 0.25 µM and 0.6 µM
[2]
  Km: 0.4 µM
[3]
  Km: 0.5 µM
[4]
  Km: 0.5 µM
[5]
  Km: 0.5 µM
[6]
  Km: 0.48 µM
[7]
  Km: 0.4 µM and 0.45 µM
